The chains are these.
B2: mouse IL-25 expressed with a C-terminal myc-myc-hexahistidine tag (ligand)
chain: VSLRIQEGCSHLPSCCPSKEQEPPEEWLKWSSASVSPPEPLSHTHHAESCRASKDGPLNSRAISPWSYELDRDLNRVPQDLYHARCLCPHCVSLQTGSHMDPLGNSVPLYHNQTVFYRRPCHGEEGTHRRYCLERRLYRVSLACVCVRPRVMAEQKLISEEDLGGEQKLISEEDLHHHHHH
B4: human IL-25 expressed with a C-terminal myc-myc-hexahistidine tag (ligand)
chain: YSHWPSCCPSKGQDTSEELLRWSTVPVPPLEPARPNRHPESCRASEDGPLNSRAISPWRYELDRDLNRLPQDLYHARCLCPHCVSLQTGSHMDPRGNSELLYHNQTVFYRRPCHGEKGTHKGYCLERRLYRVSLACVCVRPRVMGEQKLISEEDLGGEQKLISEEDLHHHHHH
B5: monkey IL-25 expressed with a C-terminal myc-myc-hexahistidine tag (ligand)
chain: YSHWPSCCPSKGYPSEELLRWSTVPVPPLKPASLDFHSVSCRASEDGPLNSRAISPWRYELDRDLNRLPQDLYHARCLCPHCVSLQTGSHMDPRGNSELLYHNQTVFYRRPCHGKKGNHKGYCLERRLYRVSLACVCVRPRVMGEQKLISEEDLGGEQKLISEEDLHHHHHH

In experiment [1] the target is B4. The experiment is described as follows: cell-based or functional assay.
In experiment [2] the target is T1, rat IL-25 expressed with a C-terminal myc-myc-hexahistidine tag (rat).
T1 construct: also called Rat IL-25-MMH
T1 chain: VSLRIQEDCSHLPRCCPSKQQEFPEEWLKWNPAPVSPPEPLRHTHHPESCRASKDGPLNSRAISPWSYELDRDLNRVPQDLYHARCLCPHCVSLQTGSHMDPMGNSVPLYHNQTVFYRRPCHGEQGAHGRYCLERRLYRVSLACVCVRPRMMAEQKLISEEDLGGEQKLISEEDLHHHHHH
The experiment is described as follows: SPR Biacore, antibody captured, 37C.
Description: (§1) Equilibrium dissociation constants (KD values) for IL-25 binding to purified anti-IL-25 antibodies were determined using a real-time surface plasmon resonance biosensor assay on a Biacore 4000 instrument (GE Healthcare). […] All the IL-25 reagents were expressed with a C-terminal myc-myc-hexahistidine tag (referred to herein as “IL-25-MMH”). […] Kinetic association (kₐ) and dissociation (kd) rate constants were determined by fitting the real-time sensorgrams to a 1:1 binding model using Scrubber 2.0c curve fitting software.

Experiment [3] deals with B4. The experiment can be described thus: competition ELISA, 2 nM hIL-25-MMH binding to coated hIL-17RB-hFc; (*) below theoretical bottom of the assay. (In general: In an ELISA, binding on a coated surface is turned into a signal by an enzyme label.)
Description: (§2) Data analysis was performed using a sigmoidal dose-response model within Prism™ software (GraphPad). […] The absorbance values of the wells containing the highest concentration for each antibody were used to determine the percent maximum blockade.
Experiment [4] deals with B2. The experiment is described as follows: SPR Biacore, antibody captured, 25C. Background: Surface plasmon resonance follows binding to a sensor surface in real time, without labels.
Description: as §1
The target of experiment [5] is B4. The experiment can be described thus: competition ELISA, 2 nM hIL-25-MMH binding to coated hIL-17RB-hFc.
Description: as §2
For experiment [6], the target named is B2. The experiment is described as follows: SPR Biacore, antibody captured, 37C.
Description: as §1
Experiment [7] addresses B5. The experiment is described as follows: SPR Biacore, antibody captured, 37C.
Description: as §1
Experiment [8] concerns the target B4. The experiment can be described thus: BLI Octet, hIL-25-MMH captured on anti-Penta-His sensor, 25C.
Description: Binding competition between anti-IL-25 monoclonal antibodies was determined using a real time, label-free bio-layer interferometry assay on an Octet QK384 biosensor (Pall ForteBio Corp.).
The biosensors were washed in HBST kinetics buffer in between every step of the experiment. The real-time binding response was monitored during the course of the experiment and the binding response at the end of every step was recorded.
In experiment [9] the target is T1, rat IL-25 expressed with a C-terminal …. The experiment is described as follows: SPR Biacore, antibody captured, 25C.
Description: as §1
Experiment [10] has as its target B2. The experiment can be described thus: cell-based or functional assay.
Experiment [11] deals with B4. The experiment is described as follows: cell-based or functional assay.
The target of experiment [12] is B5. The experiment is described as follows: cell-based or functional assay.
Experiment [13] addresses T2, human IL-25 receptor (IL-17RA/IL-17RB) on HEK293/NFκB-luc/hIL17RA/hIL17RB/hAct1 cells (human, UniProt Q96F46 33-866; Q9NRM6 18-502).
T2 sequence (looked up) 1: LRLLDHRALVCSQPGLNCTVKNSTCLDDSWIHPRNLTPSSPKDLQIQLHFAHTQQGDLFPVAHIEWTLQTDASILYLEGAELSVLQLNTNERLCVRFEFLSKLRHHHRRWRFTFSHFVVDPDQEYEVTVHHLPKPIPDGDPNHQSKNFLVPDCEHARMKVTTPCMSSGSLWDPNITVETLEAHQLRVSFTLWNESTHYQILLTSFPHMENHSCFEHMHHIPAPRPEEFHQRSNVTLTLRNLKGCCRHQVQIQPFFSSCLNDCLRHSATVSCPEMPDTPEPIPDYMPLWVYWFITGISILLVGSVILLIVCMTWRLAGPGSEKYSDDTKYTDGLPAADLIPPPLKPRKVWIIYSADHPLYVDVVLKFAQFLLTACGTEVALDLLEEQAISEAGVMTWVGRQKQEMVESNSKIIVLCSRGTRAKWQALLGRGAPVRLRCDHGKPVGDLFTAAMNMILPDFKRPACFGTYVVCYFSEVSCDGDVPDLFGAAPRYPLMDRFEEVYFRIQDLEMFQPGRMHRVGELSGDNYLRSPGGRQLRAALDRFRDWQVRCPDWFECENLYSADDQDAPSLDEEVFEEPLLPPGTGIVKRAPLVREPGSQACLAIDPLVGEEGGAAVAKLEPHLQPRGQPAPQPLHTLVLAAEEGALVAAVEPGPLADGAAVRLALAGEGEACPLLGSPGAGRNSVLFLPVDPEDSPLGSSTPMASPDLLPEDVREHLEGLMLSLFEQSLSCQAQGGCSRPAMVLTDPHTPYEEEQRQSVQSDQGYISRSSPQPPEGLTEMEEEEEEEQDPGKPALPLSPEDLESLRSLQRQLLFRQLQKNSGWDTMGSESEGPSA
T2 sequence (looked up) 2: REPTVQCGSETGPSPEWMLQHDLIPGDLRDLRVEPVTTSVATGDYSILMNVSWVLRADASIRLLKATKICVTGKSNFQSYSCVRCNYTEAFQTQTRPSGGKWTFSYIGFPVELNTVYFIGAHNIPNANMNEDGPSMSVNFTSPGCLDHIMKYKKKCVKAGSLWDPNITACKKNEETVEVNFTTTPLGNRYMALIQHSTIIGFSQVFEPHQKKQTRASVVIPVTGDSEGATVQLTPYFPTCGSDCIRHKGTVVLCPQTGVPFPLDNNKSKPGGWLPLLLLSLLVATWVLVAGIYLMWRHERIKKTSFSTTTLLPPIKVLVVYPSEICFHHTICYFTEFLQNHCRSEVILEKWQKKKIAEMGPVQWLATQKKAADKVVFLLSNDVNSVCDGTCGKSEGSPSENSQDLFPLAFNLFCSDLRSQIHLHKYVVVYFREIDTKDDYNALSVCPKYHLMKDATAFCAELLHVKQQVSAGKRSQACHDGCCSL
The experiment is described as follows: cell-based or functional assay.
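For 100 nM Monkey IL-25-MMH Bound (RU) in this document: biacore 4000 surface plasmon resonance biosensor measuring binding of IL-25-MMH to purified anti-IL-25 antibodies.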

B1: H4H10871P (antibody, human IgG4, V domains shown)
VH: QVQLVQSGAEVMKPGASVKVSCKSSDFAFTTYGISWVRQAPGQGLEWMGWISAYNGNTNYEQRFQGRITMTTDTSTTTVYMELRSLRSDDTAVYYCARDPDYCSSNTCSDAFDLWGQGTMVTVSS
VL: DIQMTQSPSSLSASVRDRVTITCRASQGITNYLAWYQQKPGKVPKVLIYAASTLQSGVPSRFSGSGSGTEFTLAISSLQPEDVATYFCQQYGSAPWTFGQGTKVEIK
notes: H4H prefix = human IgG4 Fc
Broadly, the Kd is the free concentration of one partner at which half of the binding sites on the other are occupied at equilibrium, for simple one-to-one binding. As usually defined, the koff is the first-order rate constant of dissociation. Usually kon stands for the rate constant with which the complex forms. A word on the t½: it is the time needed for the level to fall by half in the phase considered. Broadly, the IC50 is the concentration needed to halve the response being measured. In the case of B1, in experiment [1], the “IC50 values of antibodies for blocking IL-5 release from Donor #727058-059” value was determined as 118 pM and the “IC50 values of antibodies for blocking IL-5 release from Donor #727060” value was found to be 636 pM. In experiment [2], the “100 nM Rat IL-25-MMH Bound (RU)” value is 45 RU; the affinity, expressed as Kd, was 0.0602 nM; the off-rate constant (koff) came to 5.64e-05 s⁻¹; the association rate constant (kon) is 937000 M⁻¹ s⁻¹. Moreover, in experiment [2], the t½ was found to be 205 min. The molecule also returned an IC50 in experiment [3] of 0.71 nM. In [4], the “100 nM Mouse IL-25-MMH Bound (RU)” value came to 30 RU, binding was put at a Kd of 0.918 nM, the off-rate constant (koff) is 0.000111 s⁻¹ and the kon turned out to be 121000 M⁻¹ s⁻¹. The t½ in experiment [4] stood at 104 min. Also, the “% Maximum blocking of 200 nM antibody” value in [5] was found to be 92%. Moreover, in [6], the “100 nM Mouse IL-25-MMH Bound (RU)” value came to 41 RU, binding was put at a Kd of 0.258 nM, the koff is 8.29e-05 s⁻¹ and the kon is 322000 M⁻¹ s⁻¹. In addition, the t½ in [6] came to 139 min. Moreover, in [7], the “100 nM Monkey IL-25-MMH Bound (RU)” value stood at 54 RU, binding was characterised by a dissociation constant (Kd) of 0.0546 nM, the koff amounted to 7.4e-05 s⁻¹ and the kon was determined as 1.35e+06 M⁻¹ s⁻¹. The same molecule registered a t½ in [7] of 156 min. Besides, the “50 ug/mL mAb-1 Binding (nm)” value in [8] turned out to be 1.12 nm. Moreover, in [9], the “100 nM Rat IL-25-MMH Bound (RU)” value was determined as 37 RU; the affinity, expressed as Kd, was 0.132 nM; the dissociation rate constant (koff) was found to be 7.23e-05 s⁻¹; the kon amounted to 548000 M⁻¹ s⁻¹. Besides, the t½ in experiment [9] amounted to 160 min. Besides, the “IC50, luciferase reporter cells, 10 pM mIL-25-MMH” value in experiment [10] was found to be 6.7e-10 M. Also, in experiment [11], the “IC50, luciferase reporter cells, 5 pM hIL-25-MMH” value was found to be 3.2e-10 M. Also, the “IC50, luciferase reporter cells, 12 pM MfIL-25-MMH” value in experiment [12] was 8.8e-11 M.
Regarding B2, the “EC50, NFκB-luciferase activation of HEK293/NFκB-luc/hIL17RA/hIL17RB/hAct1 cells” value in [13] stood at 8.4 pM.

B3: H4H10876P (antibody, human IgG4, V domains shown)
VH: QVQLVQSGAEVKKPGASVKVSCKASEYTFSNYGISWVRQAPGQGLEWLGWIGAYSGFTKYAQKVQDRITMTTDASTTTAYMELRNLRSDDTAVYYCARVGTGTDSYFDFWGQGTLVTVSS
VL: DIQMTQSPSSLSASVGDRVTITCRASQNINSHLNWYQQKPGKAPKLLIYTASSLQSGVPLRFSGSGSGTDFTLTISSLQPEDFGIYICQQTYITPLTFGGGTKVEIK
notes: H4H prefix = human IgG4 Fc
As to B3, in [1], the “IC50 values of antibodies for blocking IL-5 release from Donor #727058-059” value was 172 pM and the “IC50 values of antibodies for blocking IL-5 release from Donor #727060” value worked out at 130 pM. Also, in experiment [2], the “100 nM Rat IL-25-MMH Bound (RU)” value worked out at 53 RU; the affinity, expressed as Kd, was 0.238 nM; the koff was determined as 0.000107 s⁻¹; the kon stood at 450000 M⁻¹ s⁻¹. The molecule also returned a t½ in [2] of 108 min. This molecule displayed an IC50 in experiment [3] of 0.65 nM. For the same molecule, in experiment [4], the “100 nM Mouse IL-25-MMH Bound (RU)” value stood at 40 RU, binding was characterised by a dissociation constant (Kd) of 0.57 nM, the off-rate constant (koff) was 9.89e-05 s⁻¹ and the on-rate constant (kon) was determined as 174000 M⁻¹ s⁻¹. Besides, the t½ in experiment [4] stood at 117 min. For the same molecule, the “% Maximum blocking of 200 nM antibody” value in [5] was found to be 89%. In experiment [6], the “100 nM Mouse IL-25-MMH Bound (RU)” value amounted to 51 RU, the Kd was determined as 0.243 nM, the koff came out at 8.97e-05 s⁻¹ and the kon was found to be 369000 M⁻¹ s⁻¹. The t½ in experiment [6] is 129 min. For the same molecule, in experiment [7], the “100 nM Monkey IL-25-MMH Bound (RU)” value stood at 64 RU; the affinity, expressed as Kd, was 0.104 nM; the off-rate (koff) amounted to 5.45e-05 s⁻¹; the kon is 524000 M⁻¹ s⁻¹. The t½ in experiment [7] was determined as 212 min. The “50 ug/mL mAb-1 Binding (nm)” value in [8] was found to be 1.07 nm. For the same molecule, in experiment [9], the “100 nM Rat IL-25-MMH Bound (RU)” value was found to be 45 RU, binding was characterised by a dissociation constant (Kd) of 0.341 nM, the koff amounted to 8.81e-05 s⁻¹ and the kon is 259000 M⁻¹ s⁻¹. Further, the t½ in experiment [9] amounted to 131 min. Also, in experiment [10], the “IC50, luciferase reporter cells, 10 pM mIL-25-MMH” value was 8.8e-10 M. For the same molecule, the “IC50, luciferase reporter cells, 5 pM hIL-25-MMH” value in experiment [11] amounted to 4.6e-10 M. Besides, the “IC50, luciferase reporter cells, 12 pM MfIL-25-MMH” value in experiment [12] came out at 2.1e-10 M.
B4: in experiment [13], the “EC50, NFκB-luciferase activation of HEK293/NFκB-luc/hIL17RA/hIL17RB/hAct1 cells (first assay day)” value is 2.9 pM and the “EC50, NFκB-luciferase activation of HEK293/NFκB-luc/hIL17RA/hIL17RB/hAct1 cells (second assay day)” value turned out to be 16 pM.
B5: the “EC50, NFκB-luciferase activation of HEK293/NFκB-luc/hIL17RA/hIL17RB/hAct1 cells” value in experiment [13] amounted to 19 pM.

Source of the values: patent publication US20160083466A1 (Regeneron, published 2016).
